In assay [1] the target is T1, catalytic domain of MMP-1 (UniProt P03956 106-261).
T1 sequence: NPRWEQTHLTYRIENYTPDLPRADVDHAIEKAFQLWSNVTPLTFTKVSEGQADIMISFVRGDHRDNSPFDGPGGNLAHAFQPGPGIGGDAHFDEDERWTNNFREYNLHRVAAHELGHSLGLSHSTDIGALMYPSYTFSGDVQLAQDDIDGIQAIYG
Description: enzyme inhibition assay.

Assay [2] addresses catalytic domain of MMP-3 (UniProt P08254 100-272). The assay is described as follows: enzyme inhibition assay.
For assay [3], the target named is catalytic domain of MMP-14 (UniProt P50281 112-292). The assay is described as follows: enzyme inhibition assay.
Assay [4] has as its target biotinylated catalytic domain of MMP-3 (UniProt P08254 100-272, biotin on Lys residues). The assay is described as follows: flow cytometry on cells.
The target of assay [5] is biotinylated catalytic domain of MMP-14 (UniProt P50281 112-292, biotin on Lys residues (EZ-Link sulfo-NHS-LC-LC-biotin)). The assay is described as follows: flow cytometry on cells. (Flow cytometry measures light scatter and fluorescence of single cells or particles in a stream.)
The target in assay [6] is T2, biotinylated catalytic domain of MMP-1 (UniProt P03956 106-261, biotin on Lys residues).
T2 sequence: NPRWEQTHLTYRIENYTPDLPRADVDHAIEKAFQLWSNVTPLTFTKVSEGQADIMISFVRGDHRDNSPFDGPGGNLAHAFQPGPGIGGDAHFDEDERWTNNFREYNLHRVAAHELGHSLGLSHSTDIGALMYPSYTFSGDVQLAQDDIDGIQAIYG
Description: flow cytometry on cells.

catalytic domain of MMP-3, sequence (P08254 100-272): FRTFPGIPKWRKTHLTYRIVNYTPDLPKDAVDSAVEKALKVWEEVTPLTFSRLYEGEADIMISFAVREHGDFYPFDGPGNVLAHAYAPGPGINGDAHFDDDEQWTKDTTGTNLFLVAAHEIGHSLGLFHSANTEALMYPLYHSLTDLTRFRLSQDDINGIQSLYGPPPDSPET
biotinylated catalytic domain of MMP-3, sequence (P08254 100-272): as above

B1: N-TIMP2 V71R (domain or fragment)
chain: CSCSPVHPQQAFCNADVVIRAKAVSEKEVDSGNDIYGNPIKRIQYEIKQIKMFKGPEKDIEFIYTAPSSARCGVSLDVGGKKEYLIAGKAEGDGKMHITLCDFIVPWDTLSTTQKKSLNHRYQMGCE
modifications: native disulfides
On to B1, for which the results for the Ki in assay [1] and in assay [2] were 5.59 nM and 86.2 nM, respectively.

B2: N-TIMP2 T99M (domain or fragment)
chain: CSCSPVHPQQAFCNADVVIRAKAVSEKEVDSGNDIYGNPIKRIQYEIKQIKMFKGPEKDIEFIYTAPSSAVCGVSLDVGGKKEYLIAGKAEGDGKMHIMLCDFIVPWDTLSTTQKKSLNHRYQMGCE
modifications: native disulfides
On to B2, for which the Ki in assay [3] worked out at 2.05 nM; in assay [1], 0.085 nM; in assay [2], 8.29 nM.

B3: N-TIMP2 T99G (domain or fragment)
chain: CSCSPVHPQQAFCNADVVIRAKAVSEKEVDSGNDIYGNPIKRIQYEIKQIKMFKGPEKDIEFIYTAPSSAVCGVSLDVGGKKEYLIAGKAEGDGKMHIGLCDFIVPWDTLSTTQKKSLNHRYQMGCE
modifications: native disulfides
For B3, the Ki in assay [3] is 0.534 nM; in assay [1] it was 0.08 nM; in assay [2], 4.24 nM.

B4: yeast-displayed N-TIMP2WT (domain or fragment)
chain: CSCSPVHPQQAFCNADVVIRAKAVSEKEVDSGNDIYGNPIKRIQYEIKQIKMFKGPEKDIEFIYTAPSSAVCGVSLDVGGKKEYLIAGKAEGDGKMHITLCDFIVPWDTLSTTQKKSLNHRYQMGCE
Take B4: the Kd in assay [4] was found to be 36.2 nM; in assay [5], 48.2 nM; in assay [6] it was 3.22 nM.

B5: N-TIMP2 T99Q (domain or fragment)
chain: CSCSPVHPQQAFCNADVVIRAKAVSEKEVDSGNDIYGNPIKRIQYEIKQIKMFKGPEKDIEFIYTAPSSAVCGVSLDVGGKKEYLIAGKAEGDGKMHIQLCDFIVPWDTLSTTQKKSLNHRYQMGCE
modifications: native disulfides
Turning to B5, the inhibitory constant (Ki) was 3.92 nM in assay [3], 0.099 nM in assay [1] and 3.72 nM in assay [2].

B6: N-TIMP2 S68E (domain or fragment)
chain: CSCSPVHPQQAFCNADVVIRAKAVSEKEVDSGNDIYGNPIKRIQYEIKQIKMFKGPEKDIEFIYTAPESAVCGVSLDVGGKKEYLIAGKAEGDGKMHITLCDFIVPWDTLSTTQKKSLNHRYQMGCE
modifications: native disulfides
With B6, the Ki was found to be 1.42 nM in assay [3], 0.249 nM in assay [1] and 4.71 nM in assay [2].

B7: N-TIMP2 S68M (domain or fragment)
chain: CSCSPVHPQQAFCNADVVIRAKAVSEKEVDSGNDIYGNPIKRIQYEIKQIKMFKGPEKDIEFIYTAPMSAVCGVSLDVGGKKEYLIAGKAEGDGKMHITLCDFIVPWDTLSTTQKKSLNHRYQMGCE
modifications: native disulfides
Take B7: the Ki is 2.6 nM in assay [3], 0.181 nM in assay [1] and 3.29 nM in assay [2].

B8: N-terminal domain of the tissue inhibitor of metalloproteinase 2, wild type (domain or fragment)
chain: CSCSPVHPQQAFCNADVVIRAKAVSEKEVDSGNDIYGNPIKRIQYEIKQIKMFKGPEKDIEFIYTAPSSAVCGVSLDVGGKKEYLIAGKAEGDGKMHITLCDFIVPWDTLSTTQKKSLNHRYQMGCE
Take B8: in assay [2], the Ki worked out at 1.34 nM.

B9: N-TIMP2 V71W (domain or fragment)
chain: CSCSPVHPQQAFCNADVVIRAKAVSEKEVDSGNDIYGNPIKRIQYEIKQIKMFKGPEKDIEFIYTAPSSAWCGVSLDVGGKKEYLIAGKAEGDGKMHITLCDFIVPWDTLSTTQKKSLNHRYQMGCE
modifications: native disulfides
For the molecule B9, the Ki was 34.3 nM in assay [3], 2.99 nM in assay [1] and 26.4 nM in assay [2].

B10: N-TIMP2 H97R (domain or fragment)
chain: CSCSPVHPQQAFCNADVVIRAKAVSEKEVDSGNDIYGNPIKRIQYEIKQIKMFKGPEKDIEFIYTAPSSAVCGVSLDVGGKKEYLIAGKAEGDGKMRITLCDFIVPWDTLSTTQKKSLNHRYQMGCE
modifications: native disulfides
For the molecule B10, the figures for the Ki in assay [3], in assay [1] and in assay [2] were 0.125 nM, 0.031 nM and 1.31 nM, respectively.

As a reminder, the Ki is a measure of affinity in units of concentration, obtained from inhibition or displacement. A high value points to weaker binding. In general, Kd refers to the equilibrium constant for the complex coming apart. A lower Kd goes with tighter binding.

Source of the values: article PMC7376575 (The Biochemical journal, 2020).
